The target of assay [1] is Truncated mouse TMEM16A (amino acids 1-903) (mouse). The experiment in a line: cryo-EM structure.
Assay [2] has the same target. The experiment in a line: cryo-EM structure. The source holds these as a separate data set.

Like-named read-outs stand apart in the source and are kept apart here.

The values below come from PMC5750132.

A word on the stoichiometry N: it is a count of units in the complex or per binding partner. Take “Truncated mouse TMEM16A (amino acids 1-903) (domain or fragment)”: the stoichiometry N in assay [1] and in assay [2] was 2 throughout.
